# From the Human Domainome abundance scans (Beltran et al. 2025)
# ± gives the uncertainty stated by the source.
# B1: RAS guanyl-releasing protein 1, residues 539 to 593; numbered along this chain, O95267 (parent)
# chain: GFPHNFQETTYLKPTFCDNCAGFLWGVIKQGYRCKDCGMNCHKQCKDLVVFECKK
# Variants of: B1
# Assay: abundance fitness (aPCA) (normalised: wild type 0, dead -1); higher = more abundant; growth selection in yeast, the domain comes from the species named
# Details: Homo sapiens
row,Variant,abundance fitness
1,GFPHNFQETTYLKPTFCDNCAGFLWGVIKQGYRCKDCGMNCHKQCKRLVVFECKK,-0.177 ± 0.08
2,GFPHNFQETTYLKHTFCDNCAGFLWGVIKQGYRCKDCGMNCHKQCKDLVVFECKK,-0.687 ± 0.12
3,GFPHNFQETTYLKITFCDNCAGFLWGVIKQGYRCKDCGMNCHKQCKDLVVFECKK,-0.647 ± 0.24
4,GFPHNFQETTYLKDTFCDNCAGFLWGVIKQGYRCKDCGMNCHKQCKDLVVFECKK,-0.38 ± 0.12
5,GFPHNFQETTYLKGTFCDNCAGFLWGVIKQGYRCKDCGMNCHKQCKDLVVFECKK,-0.449 ± 0.07
6,GFPHNFQETTYLKYTFCDNCAGFLWGVIKQGYRCKDCGMNCHKQCKDLVVFECKK,-0.397 ± 0.071
7,GFPHNFQETTYLKPTFCDNCYGFLWGVIKQGYRCKDCGMNCHKQCKDLVVFECKK,0.13 ± 0.1
8,GFPHNFQETTYLKPTFCDNCKGFLWGVIKQGYRCKDCGMNCHKQCKDLVVFECKK,0.019 ± 0.1
9,GFPHNFQETTYLKPTFCDNCAGFLWGVIKQGYRCKDCGMNCHKQCKDLVVFECVK,-0.248 ± 0.076
10,GFPHNFQETTYLKPTFCDNCAGFLWGVIKQGYRCKDCGMNCHKQCKDLVVFECQK,-0.113 ± 0.16
11,GFPHNFQETTYLKPTFCDECAGFLWGVIKQGYRCKDCGMNCHKQCKDLVVFECKK,0.11 ± 0.1
12,GFPHNFQETTYLKPTFCDNCAGFLWGVITQGYRCKDCGMNCHKQCKDLVVFECKK,-0.289 ± 0.099
13,GFPHNFQETTYLKPTFCDNCAGFLWGVIFQGYRCKDCGMNCHKQCKDLVVFECKK,-0.224 ± 0.14
14,GFPHNNQETTYLKPTFCDNCAGFLWGVIKQGYRCKDCGMNCHKQCKDLVVFECKK,-0.29 ± 0.13
15,GFPENFQETTYLKPTFCDNCAGFLWGVIKQGYRCKDCGMNCHKQCKDLVVFECKK,-0.628 ± 0.42
16,GFPLNFQETTYLKPTFCDNCAGFLWGVIKQGYRCKDCGMNCHKQCKDLVVFECKK,-1.07 ± 0.27
17,GFPANFQETTYLKPTFCDNCAGFLWGVIKQGYRCKDCGMNCHKQCKDLVVFECKK,-0.878 ± 0.17
18,GFPHNFQETTYLKPTFCDNCAGFLWGVIKVGYRCKDCGMNCHKQCKDLVVFECKK,-0.617 ± 0.1
19,GFPHNFQETTYLKPTFCDNCAGFLWGVIKQGYRCKDCGMNCHKQCKDLQVFECKK,-0.071 ± 0.15
20,GFPHNFQETTYLKPTFCDNCAGFLWGVIKQGYRCKDCGMNCHKQCKDLCVFECKK,-0.229 ± 0.09
21,GFPHNFQETTYLKPTFCDNCAGFLWGVIKQGYRCKDCGMNCHKQCKDLGVFECKK,-0.122 ± 0.084
22,GFPHNFQETTYLKPTFCDNCAGFLWGVIKQGYRCKDCGMNCHKQCKDLLVFECKK,-0.276 ± 0.095
23,GFPHNFQETTYLKPTFCDNCAGFLWGVIKQMYRCKDCGMNCHKQCKDLVVFECKK,-0.461 ± 0.32
24,GFPHNFQETTYLKPTPCDNCAGFLWGVIKQGYRCKDCGMNCHKQCKDLVVFECKK,-0.334 ± 0.11

row,Variant,abundance fitness
1,GFPHNFQETTYLKPTWCDNCAGFLWGVIKQGYRCKDCGMNCHKQCKDLVVFECKK,-0.376 ± 0.12
2,GFPHNFQETTYLKPTFCDNCAGFLWGVIKQGYRCQDCGMNCHKQCKDLVVFECKK,0.1 ± 0.097
3,GFPHNFQETTYLKPTFCDNCAGFLWGVIKQGYRCIDCGMNCHKQCKDLVVFECKK,-0.009 ± 0.049
4,GFPHNFQETTYLKPTFCDNCAGFLWGVIKQGYRCKDCGMNCHKQCCDLVVFECKK,0.129 ± 0.092
5,GFPHNFQETTYIKPTFCDNCAGFLWGVIKQGYRCKDCGMNCHKQCKDLVVFECKK,-0.63 ± 0.23
6,GFPHNFQETTYLKPTFCDNCAGFLWGVNKQGYRCKDCGMNCHKQCKDLVVFECKK,-0.243 ± 0.13
7,GFPHNFQDTTYLKPTFCDNCAGFLWGVIKQGYRCKDCGMNCHKQCKDLVVFECKK,-0.452 ± 0.16
8,GFPHNFQWTTYLKPTFCDNCAGFLWGVIKQGYRCKDCGMNCHKQCKDLVVFECKK,-0.174 ± 0.1
9,GFPHNFQNTTYLKPTFCDNCAGFLWGVIKQGYRCKDCGMNCHKQCKDLVVFECKK,-0.152 ± 0.22
10,GFPHNFQATTYLKPTFCDNCAGFLWGVIKQGYRCKDCGMNCHKQCKDLVVFECKK,0.039 ± 0.066
11,GFPHNFQETLYLKPTFCDNCAGFLWGVIKQGYRCKDCGMNCHKQCKDLVVFECKK,-0.426 ± 0.052
12,GFPHNFQETKYLKPTFCDNCAGFLWGVIKQGYRCKDCGMNCHKQCKDLVVFECKK,-0.456 ± 0.17
13,GFPHNFQETPYLKPTFCDNCAGFLWGVIKQGYRCKDCGMNCHKQCKDLVVFECKK,-0.605 ± 0.13
14,GFPHNFQETAYLKPTFCDNCAGFLWGVIKQGYRCKDCGMNCHKQCKDLVVFECKK,-0.408 ± 0.12
15,GFPHNFQETTYLKPTFCDNCAGFLPGVIKQGYRCKDCGMNCHKQCKDLVVFECKK,-0.07 ± 0.11
16,GFPHNFQETTYLKPTFCDNCAGFLLGVIKQGYRCKDCGMNCHKQCKDLVVFECKK,-0.286 ± 0.087
17,GFPHNFQETTYLKPTFCDNCAGFLYGVIKQGYRCKDCGMNCHKQCKDLVVFECKK,-0.191 ± 0.09
18,GFPHNFQETTYLKPQFCDNCAGFLWGVIKQGYRCKDCGMNCHKQCKDLVVFECKK,-0.426 ± 0.25
19,GFPHNFQETTYLKPRFCDNCAGFLWGVIKQGYRCKDCGMNCHKQCKDLVVFECKK,-0.29 ± 0.076
20,GFPHNFQETTYLKPTFCDNCAGFLWGVIKQGYFCKDCGMNCHKQCKDLVVFECKK,-0.017 ± 0.06
21,GFPHNFQETTYLKPTFCDNCAGFLWGVIKQGYYCKDCGMNCHKQCKDLVVFECKK,-0.402 ± 0.12
22,GMPHNFQETTYLKPTFCDNCAGFLWGVIKQGYRCKDCGMNCHKQCKDLVVFECKK,-0.051 ± 0.094
23,GKPHNFQETTYLKPTFCDNCAGFLWGVIKQGYRCKDCGMNCHKQCKDLVVFECKK,-0.108 ± 0.085
24,GQPHNFQETTYLKPTFCDNCAGFLWGVIKQGYRCKDCGMNCHKQCKDLVVFECKK,-0.282 ± 0.12
